What is called Ki is the equilibrium dissociation constant of an inhibitor or competing ligand from its target.

*1 amine or outer side, *2 acyl side, *3 side chain or, on linkers, in order; H or OH if unused. Side-chain parts run from the residue outwards. The star is where a group is joined. C18 diacid = O=C(O)CCCCCCCCCCCCCCCCC(=O)*; γGlu = O=C(O)[C@H](CCC(=O)[*:2])N[*:1]; Isovaleryl = CC(C)CC(=O)*; AEEA = NCCOCCOCC(=O)O

The labels stand for the following.
T1: human neuropeptide Y2 receptor (human, UniProt P49146 1-381)
T1 construct: whole, on cells; also called hNPY2 receptor; hNPY2-R
T1 sequence (looked up): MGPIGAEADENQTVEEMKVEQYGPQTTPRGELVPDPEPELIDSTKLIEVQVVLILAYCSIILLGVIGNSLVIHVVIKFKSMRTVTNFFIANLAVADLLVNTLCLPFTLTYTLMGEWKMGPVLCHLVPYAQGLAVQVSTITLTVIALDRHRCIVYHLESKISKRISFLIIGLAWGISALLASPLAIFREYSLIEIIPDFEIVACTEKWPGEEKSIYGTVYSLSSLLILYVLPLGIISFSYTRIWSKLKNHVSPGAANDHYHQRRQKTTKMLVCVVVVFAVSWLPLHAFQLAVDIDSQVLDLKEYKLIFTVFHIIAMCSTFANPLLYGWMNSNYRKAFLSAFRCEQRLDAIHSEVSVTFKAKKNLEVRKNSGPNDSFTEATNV

B1: Compound 28 (peptide)
peptide: Isovaleryl-APEK([AEEA-AEEA-γGlu-C18 diacid])PEEDTSPEELQRYYVELRHYYNWLTRQRY-NH2
SMILES: CC(C)CC(=O)N[C@@H](C)C(=O)N1CCC[C@H]1C(=O)N[C@@H](CCC(=O)O)C(=O)N[C@@H](CCCCNC(=O)COCCOCCNC(=O)COCCOCCNC(=O)CC[C@H](NC(=O)CCCCCCCCCCCCCCCCC(=O)O)C(=O)O)C(=O)N1CCC[C@H]1C(=O)N[C@@H](CCC(=O)O)C(=O)N[C@@H](CCC(=O)O)C(=O)N[C@@H](CC(=O)O)C(=O)N[C@H](C(=O)N[C@@H](CO)C(=O)N1CCC[C@H]1C(=O)N[C@@H](CCC(=O)O)C(=O)N[C@@H](CCC(=O)O)C(=O)N[C@@H](CC(C)C)C(=O)N[C@@H](CCC(N)=O)C(=O)N[C@@H](CCCNC(=N)N)C(=O)N[C@@H](Cc1ccc(O)cc1)C(=O)N[C@@H](Cc1ccc(O)cc1)C(=O)N[C@H](C(=O)N[C@@H](CCC(=O)O)C(=O)N[C@@H](CC(C)C)C(=O)N[C@@H](CCCNC(=N)N)C(=O)N[C@@H](Cc1c[nH]cn1)C(=O)N[C@@H](Cc1ccc(O)cc1)C(=O)N[C@@H](Cc1ccc(O)cc1)C(=O)N[C@@H](CC(N)=O)C(=O)N[C@@H](Cc1c[nH]c2ccccc12)C(=O)N[C@@H](CC(C)C)C(=O)N[C@H](C(=O)N[C@@H](CCCNC(=N)N)C(=O)N[C@@H](CCC(N)=O)C(=O)N[C@@H](CCCNC(=N)N)C(=O)N[C@@H](Cc1ccc(O)cc1)C(N)=O)[C@@H](C)O)C(C)C)[C@@H](C)O
B2: Compound 34 (peptide)
peptide: Isovaleryl-APEK([AEEA-AEEA-γGlu-C18 diacid])PEEDASPEELQRYYVSTRHYYNWLTRQRY-NH2
SMILES: CC(C)CC(=O)N[C@@H](C)C(=O)N1CCC[C@H]1C(=O)N[C@@H](CCC(=O)O)C(=O)N[C@@H](CCCCNC(=O)COCCOCCNC(=O)COCCOCCNC(=O)CC[C@H](NC(=O)CCCCCCCCCCCCCCCCC(=O)O)C(=O)O)C(=O)N1CCC[C@H]1C(=O)N[C@@H](CCC(=O)O)C(=O)N[C@@H](CCC(=O)O)C(=O)N[C@@H](CC(=O)O)C(=O)N[C@@H](C)C(=O)N[C@@H](CO)C(=O)N1CCC[C@H]1C(=O)N[C@@H](CCC(=O)O)C(=O)N[C@@H](CCC(=O)O)C(=O)N[C@@H](CC(C)C)C(=O)N[C@@H](CCC(N)=O)C(=O)N[C@@H](CCCNC(=N)N)C(=O)N[C@@H](Cc1ccc(O)cc1)C(=O)N[C@@H](Cc1ccc(O)cc1)C(=O)N[C@H](C(=O)N[C@@H](CO)C(=O)N[C@H](C(=O)N[C@@H](CCCNC(=N)N)C(=O)N[C@@H](Cc1c[nH]cn1)C(=O)N[C@@H](Cc1ccc(O)cc1)C(=O)N[C@@H](Cc1ccc(O)cc1)C(=O)N[C@@H](CC(N)=O)C(=O)N[C@@H](Cc1c[nH]c2ccccc12)C(=O)N[C@@H](CC(C)C)C(=O)N[C@H](C(=O)N[C@@H](CCCNC(=N)N)C(=O)N[C@@H](CCC(N)=O)C(=O)N[C@@H](CCCNC(=N)N)C(=O)N[C@@H](Cc1ccc(O)cc1)C(N)=O)[C@@H](C)O)[C@@H](C)O)C(C)C
B3: Compound 35 (peptide)
peptide: Isovaleryl-APEK([AEEA-AEEA-γGlu-C18 diacid])PEEDAAPEETQRYYVSLRHYYNWLTRQRY-NH2
SMILES: CC(C)CC(=O)N[C@@H](C)C(=O)N1CCC[C@H]1C(=O)N[C@@H](CCC(=O)O)C(=O)N[C@@H](CCCCNC(=O)COCCOCCNC(=O)COCCOCCNC(=O)CC[C@H](NC(=O)CCCCCCCCCCCCCCCCC(=O)O)C(=O)O)C(=O)N1CCC[C@H]1C(=O)N[C@@H](CCC(=O)O)C(=O)N[C@@H](CCC(=O)O)C(=O)N[C@@H](CC(=O)O)C(=O)N[C@@H](C)C(=O)N[C@@H](C)C(=O)N1CCC[C@H]1C(=O)N[C@@H](CCC(=O)O)C(=O)N[C@@H](CCC(=O)O)C(=O)N[C@H](C(=O)N[C@@H](CCC(N)=O)C(=O)N[C@@H](CCCNC(=N)N)C(=O)N[C@@H](Cc1ccc(O)cc1)C(=O)N[C@@H](Cc1ccc(O)cc1)C(=O)N[C@H](C(=O)N[C@@H](CO)C(=O)N[C@@H](CC(C)C)C(=O)N[C@@H](CCCNC(=N)N)C(=O)N[C@@H](Cc1c[nH]cn1)C(=O)N[C@@H](Cc1ccc(O)cc1)C(=O)N[C@@H](Cc1ccc(O)cc1)C(=O)N[C@@H](CC(N)=O)C(=O)N[C@@H](Cc1c[nH]c2ccccc12)C(=O)N[C@@H](CC(C)C)C(=O)N[C@H](C(=O)N[C@@H](CCCNC(=N)N)C(=O)N[C@@H](CCC(N)=O)C(=O)N[C@@H](CCCNC(=N)N)C(=O)N[C@@H](Cc1ccc(O)cc1)C(N)=O)[C@@H](C)O)C(C)C)[C@@H](C)O
B4: Compound 36 (peptide)
peptide: Isovaleryl-APEK([AEEA-AEEA-γGlu-C18 diacid])AEEDAEPEELQRYYVSLRHYYNWLTRQRY-NH2
SMILES: CC(C)CC(=O)N[C@@H](C)C(=O)N1CCC[C@H]1C(=O)N[C@@H](CCC(=O)O)C(=O)N[C@@H](CCCCNC(=O)COCCOCCNC(=O)COCCOCCNC(=O)CC[C@H](NC(=O)CCCCCCCCCCCCCCCCC(=O)O)C(=O)O)C(=O)N[C@@H](C)C(=O)N[C@@H](CCC(=O)O)C(=O)N[C@@H](CCC(=O)O)C(=O)N[C@@H](CC(=O)O)C(=O)N[C@@H](C)C(=O)N[C@@H](CCC(=O)O)C(=O)N1CCC[C@H]1C(=O)N[C@@H](CCC(=O)O)C(=O)N[C@@H](CCC(=O)O)C(=O)N[C@@H](CC(C)C)C(=O)N[C@@H](CCC(N)=O)C(=O)N[C@@H](CCCNC(=N)N)C(=O)N[C@@H](Cc1ccc(O)cc1)C(=O)N[C@@H](Cc1ccc(O)cc1)C(=O)N[C@H](C(=O)N[C@@H](CO)C(=O)N[C@@H](CC(C)C)C(=O)N[C@@H](CCCNC(=N)N)C(=O)N[C@@H](Cc1c[nH]cn1)C(=O)N[C@@H](Cc1ccc(O)cc1)C(=O)N[C@@H](Cc1ccc(O)cc1)C(=O)N[C@@H](CC(N)=O)C(=O)N[C@@H](Cc1c[nH]c2ccccc12)C(=O)N[C@@H](CC(C)C)C(=O)N[C@H](C(=O)N[C@@H](CCCNC(=N)N)C(=O)N[C@@H](CCC(N)=O)C(=O)N[C@@H](CCCNC(=N)N)C(=O)N[C@@H](Cc1ccc(O)cc1)C(N)=O)[C@@H](C)O)C(C)C
B5: Compound 33 (peptide)
peptide: Isovaleryl-APEK([AEEA-AEEA-γGlu-C18 diacid])PEEPASPEELQRYYVELRHYYNWLTRQRY-NH2
SMILES: CC(C)CC(=O)N[C@@H](C)C(=O)N1CCC[C@H]1C(=O)N[C@@H](CCC(=O)O)C(=O)N[C@@H](CCCCNC(=O)COCCOCCNC(=O)COCCOCCNC(=O)CC[C@H](NC(=O)CCCCCCCCCCCCCCCCC(=O)O)C(=O)O)C(=O)N1CCC[C@H]1C(=O)N[C@@H](CCC(=O)O)C(=O)N[C@@H](CCC(=O)O)C(=O)N1CCC[C@H]1C(=O)N[C@@H](C)C(=O)N[C@@H](CO)C(=O)N1CCC[C@H]1C(=O)N[C@@H](CCC(=O)O)C(=O)N[C@@H](CCC(=O)O)C(=O)N[C@@H](CC(C)C)C(=O)N[C@@H](CCC(N)=O)C(=O)N[C@@H](CCCNC(=N)N)C(=O)N[C@@H](Cc1ccc(O)cc1)C(=O)N[C@@H](Cc1ccc(O)cc1)C(=O)N[C@H](C(=O)N[C@@H](CCC(=O)O)C(=O)N[C@@H](CC(C)C)C(=O)N[C@@H](CCCNC(=N)N)C(=O)N[C@@H](Cc1c[nH]cn1)C(=O)N[C@@H](Cc1ccc(O)cc1)C(=O)N[C@@H](Cc1ccc(O)cc1)C(=O)N[C@@H](CC(N)=O)C(=O)N[C@@H](Cc1c[nH]c2ccccc12)C(=O)N[C@@H](CC(C)C)C(=O)N[C@H](C(=O)N[C@@H](CCCNC(=N)N)C(=O)N[C@@H](CCC(N)=O)C(=O)N[C@@H](CCCNC(=N)N)C(=O)N[C@@H](Cc1ccc(O)cc1)C(N)=O)[C@@H](C)O)C(C)C
B6: Compound 32 (peptide)
peptide: Isovaleryl-APEK([AEEA-AEEA-γGlu-C18 diacid])PEEDTSPEELQRYEVSLRHYYNWLTRQRY-NH2
SMILES: CC(C)CC(=O)N[C@@H](C)C(=O)N1CCC[C@H]1C(=O)N[C@@H](CCC(=O)O)C(=O)N[C@@H](CCCCNC(=O)COCCOCCNC(=O)COCCOCCNC(=O)CC[C@H](NC(=O)CCCCCCCCCCCCCCCCC(=O)O)C(=O)O)C(=O)N1CCC[C@H]1C(=O)N[C@@H](CCC(=O)O)C(=O)N[C@@H](CCC(=O)O)C(=O)N[C@@H](CC(=O)O)C(=O)N[C@H](C(=O)N[C@@H](CO)C(=O)N1CCC[C@H]1C(=O)N[C@@H](CCC(=O)O)C(=O)N[C@@H](CCC(=O)O)C(=O)N[C@@H](CC(C)C)C(=O)N[C@@H](CCC(N)=O)C(=O)N[C@@H](CCCNC(=N)N)C(=O)N[C@@H](Cc1ccc(O)cc1)C(=O)N[C@@H](CCC(=O)O)C(=O)N[C@H](C(=O)N[C@@H](CO)C(=O)N[C@@H](CC(C)C)C(=O)N[C@@H](CCCNC(=N)N)C(=O)N[C@@H](Cc1c[nH]cn1)C(=O)N[C@@H](Cc1ccc(O)cc1)C(=O)N[C@@H](Cc1ccc(O)cc1)C(=O)N[C@@H](CC(N)=O)C(=O)N[C@@H](Cc1c[nH]c2ccccc12)C(=O)N[C@@H](CC(C)C)C(=O)N[C@H](C(=O)N[C@@H](CCCNC(=N)N)C(=O)N[C@@H](CCC(N)=O)C(=O)N[C@@H](CCCNC(=N)N)C(=O)N[C@@H](Cc1ccc(O)cc1)C(N)=O)[C@@H](C)O)C(C)C)[C@@H](C)O

For the experiment, the target named is T1, human neuropeptide Y2 receptor. Nature of the experiment: radioligand competition (125I-PYY(1-36)), hNPY2R membranes. In outline: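 Commercial human Y2 receptor membranes (0.5 μg protein/well) were incubated with peptide for 2 h at room temperature in 50 mM HEPES, 5 mM MgCl₂, 1 mM CaCl₂, pH 7.4, with 0.2% ovalbumin. Bound radioligand was separated on PEI-soaked GF/C filters and counted by scintillation, and IC₅₀ came from nonlinear sigmoidal regression.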
(In general: Loss of bound radioactivity is the signal in a displacement assay; it reports binding, not function.)
In turn, B1 registered a Ki of 6.03 nM. The molecule B2 showed a Ki of 6.4 nM. Take B3: the Ki worked out at 1.21 nM.

The molecule B4 returned a Ki of 10.6 nM. Turning to B5, the Ki was determined as 0.45 nM. As for B6, the Ki is 4.84 nM. This Ki is about 11-fold higher than that of the molecule before.

The record behind these values is patent US20210139548A1 (published 2021).
